These results are taken from paper PMC12443421.

For assay [1], the target named is acidic patch mutant (APM) unmodified 147 bp nucleosome (H2A E61A, E64S, N68A, D72S, N89A, D90A, E91S) (human) (UniProt P62807). In words: native gel or EMSA; direct binding: 100 nM nucleosome and varying KDM5A; 50 mM HEPES pH 7.5, 50 mM KCl, 1 mM BME, 0.01% Tween-20, 0.01% BSA, 5% sucrose; 1 h on ice; gel at 4 C; SYBR gold; fit to specific binding with Hill slope. (In EMSA bound probe runs differently from free probe, usually more slowly.)

Assay [2] has as its target acidic patch mutant (APM) H3K4me3 147 bp nucleosome (human) (UniProt P62807). The assay is described as above.
Assay [3] has the same target.
Assay [4] has as its target acidic patch mutant (APM) unmodified 147 bp nucleosome (H2A E61A, E64S, N68A, D72S, N89A, D90A, E91S), P62807;Q71DI3;P62805. In words: EMSA.
Assay [5] addresses KDM5A^CAT (lysine demethylase 5A, residues 1-801) (UniProt P29375). The assay can be described thus: EMSA.

pKd: −log10 of the molar value. Where two headings read alike, the source gives them in different places.

KDM5A^CAT (lysine demethylase 5A, residues 1-801) (from UniProt P29375 1-801) (domain or fragment), sequence (P29375 1-801): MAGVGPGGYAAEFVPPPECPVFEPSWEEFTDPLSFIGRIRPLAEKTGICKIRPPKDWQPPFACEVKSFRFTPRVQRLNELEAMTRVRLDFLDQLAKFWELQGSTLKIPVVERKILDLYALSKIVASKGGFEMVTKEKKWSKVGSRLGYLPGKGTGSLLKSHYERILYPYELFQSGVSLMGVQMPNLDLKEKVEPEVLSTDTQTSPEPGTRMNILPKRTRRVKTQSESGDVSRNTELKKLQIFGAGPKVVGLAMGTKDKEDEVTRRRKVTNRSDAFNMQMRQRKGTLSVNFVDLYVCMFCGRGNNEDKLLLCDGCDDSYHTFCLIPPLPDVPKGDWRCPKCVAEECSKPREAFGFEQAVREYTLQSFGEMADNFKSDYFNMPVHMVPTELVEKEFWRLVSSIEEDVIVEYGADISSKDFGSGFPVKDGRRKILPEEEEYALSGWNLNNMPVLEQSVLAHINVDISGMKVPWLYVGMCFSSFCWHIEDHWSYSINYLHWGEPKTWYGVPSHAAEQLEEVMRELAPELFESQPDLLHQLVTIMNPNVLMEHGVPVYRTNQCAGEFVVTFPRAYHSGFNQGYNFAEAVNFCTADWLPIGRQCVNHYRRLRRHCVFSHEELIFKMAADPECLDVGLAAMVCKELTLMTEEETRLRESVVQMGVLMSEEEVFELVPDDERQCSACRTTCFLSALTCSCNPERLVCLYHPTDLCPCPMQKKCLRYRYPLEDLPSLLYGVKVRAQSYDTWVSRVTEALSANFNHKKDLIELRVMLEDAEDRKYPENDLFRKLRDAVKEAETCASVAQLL

“KDM5A^CAT (lysine demethylase 5A, residues 1-801) (from UniProt P29375 1-801) (domain or fragment)” yielded a fold loss in affinity relative to the wild-type 147 bp nucleosome in assay [1] of 3 fold. The same substance showed a fold lower affinity relative to the wild-type H3K4me3 nucleosome in assay [2] of 4 fold. The substance further came in with a fold decrease in demethylation of H3K4me3 on APM 147 bp nucleosomes relative to wild-type nucleosomes, quantitative western blot, single turnover (5 uM KDM5A enzyme, 50 nM substrate, 50 mM KCl) in assay [3] of 9 fold.
As usually defined, the pKd is −log10 of the Kd, conventionally taken in molar units. A low value points to a large Kd. With “KDM5A^CAT (lysine demethylase 5A, residues 1-801) (from UniProt P29375) R210A; R217A; R219A; R220A; R232A; R264A; R265A; R266A; R271A; R280A; R282A”, the pKd in assay [4] and in assay [4] (0-32 µM KDM5A^MutR titration) was 4.85 each time.
“KDM5A^CAT (lysine demethylase 5A, residues 1-801) (from UniProt P29375) R217A; R219A; R220A”: the pKd in assay [4] is 4.82.
“KDM5A^CAT (lysine demethylase 5A, residues 1-801) (from UniProt P29375) R264A; R265A; R266A; R271A”: in assay [4], the pKd is 5.00.
“KDM5A^CAT (lysine demethylase 5A, residues 1-801) (from UniProt P29375) R280A; R282A” had a pKd in assay [4] of 4.92.
As for “wild-type unmodified 147 bp nucleosome (nucleosome core particle) (from UniProt P04908;P62807;Q71DI3;P62805) H2A:E61A; H2A:E64S; H2A:N68A; H2A:D72S; H2A:N89A; H2A:D90A; H2A:E91S”, the pKd in assay [5] was 4.92.
